From patent publication US20170137818, “APTAMER INHIBITING BIOLOGICAL ACTIVITY OF AUTOTAXIN BY BINDING WITH AUTOTAXIN, AND USE THEREOF” (RIBOMIC INC., published 2017)

Tests used:
autotaxin (ENPP2/NPP2) [1] = biological target: T1, autotaxin (ENPP2/NPP2) (Homo sapiens, UniProt Q13822 Q13822:36-863); assay: inhibition; LPA production, 0.20 uM aptamer, ~92% serum, 37C 3 h
[2] = biological target: T2, autotaxin (endogenous, human pooled serum) (Homo sapiens, UniProt Q13822 Q13822:36-863); assay: inhibition; LPA production in serum, 0.10 uM
[3] = biological target: T2, autotaxin (endogenous, human pooled …); assay: inhibition; LPA production in serum, 1.0 uM
autotaxin (ENPP2/NPP2) [4] = biological target: T1, autotaxin (ENPP2/NPP2); assay: inhibition; NPP2 assay per text (column headed LysoPLD)
autotaxin (ENPP2/NPP2) [5] = biological target: T1, autotaxin (ENPP2/NPP2); assay: inhibition; LPA production, 1.0 uM aptamer, ~92% serum, 37C 3 h
autotaxin (ENPP2/NPP2) [6] = biological target: T1, autotaxin (ENPP2/NPP2); assay: inhibition; LPA production, 0.025 uM aptamer, ~92% serum, 37C 3 h
[7] = biological target: T2, autotaxin (endogenous, human pooled …); assay: inhibition; LPA production in serum, 0.025 uM
autotaxin (ENPP2/NPP2) [8] = biological target: T1, autotaxin (ENPP2/NPP2); assay: inhibition; NPP2 assay, 37 C

B1: 12(56) (ssDNA)
DNA: CCTGGACGGAACCAGAATACTTTTGGTCTCCAGG
modifications: 2'-OMe C7,G9,A14,G15,A19,C20,A32,G33,G34; 5' 40 kDa PEG (GL2-400GS2) via ssH linker; 3' C6 spacer
activity (autotaxin (ENPP2/NPP2) [1]): 93 % inhibition

CCTGGACGGAACCAGAATACTTTTGGTCTCCAGG (ssDNA, 2'-OMe C7,G9,A14,G15,A19,C20,A32,G33,G34; PS between G8 and G9; 5' idT, 3' idT) [12(77)]
activity [2]: 88 % inhibition

CCTGGACGGAACCAGAATACTTTTGGTCTCCAGG (ssDNA, 2'-OMe C7,G9,A14,G15,A19,C20,A32,G33,G34; P-methyl G8,C12,C28; 5' idT, 3' idT) [12(119)]
activity [2]: 97 % inhibition

CCTGGACGGAACCAGAATACTTTTGGTCTCCAGG (ssDNA, 2'-OMe C7,G9,A14,G15,A19,C20,A32,G33,G34; PS between G9 and A10; 5' idT, 3' idT) [12(105)]
activity [2]: 25 % inhibition

B2: 12(131) (ssDNA)
DNA: B1 DNA
modifications: 2'-OMe C7,G9,A14,G15,A19,C20,A32,G33,G34; P-methyl G8; 5' 40 kDa PEG via ssH linker, 3' idT
activity [2]: 91 % inhibition

CCTGGACGGAACCAGAATACTTTTGGTCTCCAGG (ssDNA, 2'-OMe C1,G5,C7,G9,C12,C13,A14,G15,A19,C20,A32,G33,G34; 5' idT, 3' idT) [12(42)]
activity [3]: 68 % inhibition

B3: 12(49) (ssDNA)
DNA: B1 DNA
modifications: 2'-OMe C1,G5,C7,G9,C12,C13,A14,G15,A19,C20,A32,G33,G34; 5' 40 kDa PEG via ssH linker, 3' idT
activity [3]: 58 % inhibition

B4: 12(152) (ssDNA)
DNA: B1 DNA
modifications: 2'-OMe C7,G9,A14,G15,A19,C20,A32,G33,G34; P-butoxy between C12 and C13; 5' idT, 3' idT
IC50 (autotaxin (ENPP2/NPP2) [4]): 0.23 nM

CCTGGACGGAACCAGAATACTTTTGGTCTCCAGG (ssDNA, 2'-OMe C1,G5,C7,G9,C12,C13,A14,G15,A19,C20,C30,A32,G33,G34; idT 5' and 3') [12(47)]
activity (autotaxin (ENPP2/NPP2) [5]): 57 % inhibition

B5: 12(137) (ssDNA)
DNA: B1 DNA
modifications: 2'-OMe C7,G9,A14,G15,A19,C20,A32,G33,G34; P-methyl C1,G5,G8,C12,A16,T21,T23,C28,C30,C31,A32; idT 5' and 3'
activity (autotaxin (ENPP2/NPP2) [6]): 56 % inhibition

CCTGGACGGAACCAGAATACTTTTGGTCTCCAGG (ssDNA, 2'-OMe C7,G9,A14,G15,A19,C20,A32,G33,G34; 5' idT; 3' C12 spacer) [12(54)]
activity (autotaxin (ENPP2/NPP2) [1]): 89 % inhibition

CCTGGACGGAACCAGAATACTTTTGGTCTCCAGG (ssDNA, 2'-OMe C7,G9,A14,G15,A19,C20,A32,G33,G34; P-methyl G8; 5' idT, 3' idT) [12(92)]
activity [2]: 91 % inhibition

B6: 12(133) (ssDNA)
DNA: B1 DNA
modifications: 2'-OMe C7,G9,A14,G15,A19,C20,A32,G33,G34; P-methyl G8,C12,C28; 5' 40 kDa PEG via ssH linker, 3' idT
activity [7]: 90 % inhibition

B7: 12(132) (ssDNA)
DNA: B1 DNA
modifications: 2'-OMe C7,G9,A14,G15,A19,C20,A32,G33,G34; P-methyl C1,G5,G8,C12,A16,T21,T23,C28,C30,C31; 5' idT, 3' idT
activity [7]: 59 % inhibition

B8: 12(150) (ssDNA)
DNA: B1 DNA
modifications: 2'-OMe C7,G9,A14,G15,A19,C20,A32,G33,G34; P-isopropoxy between C12 and C13; 5' idT, 3' idT
IC50 (autotaxin (ENPP2/NPP2) [4]): 0.17 nM

B9: 12(139) (ssDNA)
DNA: B1 DNA
modifications: 2'-OMe C7,G9,A14,G15,A19,C20,A32,G33,G34; P-methyl C1,G5,G8,C12,A16,A19,T21,T23,C28,C30,C31; 5' idT, 3' idT
activity [7]: 71 % inhibition

CTGGACGGAACCAGAATACTTTTGGTCTCCAG (ssDNA) [SEQ 16 aptamer]
IC50 (autotaxin (ENPP2/NPP2) [8]): 18 nM

TACGCTCGGAACCGAGGCAATTGGTCAGCGTG (ssDNA) [SEQ 27 aptamer]
IC50 (autotaxin (ENPP2/NPP2) [8]): 24 nM

CGCTGGGGTACGCTCGGAACCGAGGCAATTGGTCAGCG (ssDNA) [SEQ 26 aptamer]
IC50 (autotaxin (ENPP2/NPP2) [8]): 440 nM

B10: SEQ 25 aptamer (ssDNA)
DNA: ACACTCACAGGCGCTGGCGACGTCGGAACCGTGTACCATGGTCACGTCGTGCATGGCCGCTAGT
IC50 (autotaxin (ENPP2/NPP2) [8]): 31 nM

B11: SEQ 10 aptamer (ssDNA)
DNA: GTGGTCTAGCTGTACTCGCCGGAACCGTACTATGGTCGCGTTGTATGACGCTTGTATCCACAGTCAACGAGCTA
IC50 (autotaxin (ENPP2/NPP2) [8]): 21 nM

B12: SEQ 22 aptamer (ssDNA)
DNA: ACACTCACAGGCGCTGGCCGGAACCGTGCATATGGTCGCCAGCACATCGTGCATGGCCGCTAGT
IC50 (autotaxin (ENPP2/NPP2) [8]): 30 nM

TGGACGGAACCAGAATACTTTTGGTCTCCA (ssDNA) [SEQ 13 aptamer]
IC50 (autotaxin (ENPP2/NPP2) [8]): 110 nM

B13: SEQ 9 aptamer (ssDNA)
DNA: GTGGTCTAGCTGTACTCAGGCCGGAACCGGTGAAATTGGTCGCCTAATAAGCGAAATCCACAGTCAACGAGCTA
IC50 (autotaxin (ENPP2/NPP2) [8]): 36 nM

B14: SEQ 20 aptamer (ssDNA)
DNA: ACACTCACAGGCGCTGGGGTACGCTCGGAACCGAGGCAATTGGTCAGCGTGCATGGCCGCTAGT
IC50 (autotaxin (ENPP2/NPP2) [8]): 37 nM

B15: SEQ 24 aptamer (ssDNA)
DNA: ACACTCACAGGCGCTGGCGAGTCGGAACCGAGCCGATTGGTCACTCGCGTGCATGGCCGCTAGT
IC50 (autotaxin (ENPP2/NPP2) [8]): 32 nM

GGGACGGAACCAGAATACTTTTGGTCTCCC (ssDNA) [SEQ 14 aptamer]
IC50 (autotaxin (ENPP2/NPP2) [8]): 42 nM
